Measurements taken from PMC11927175, “Global profiling of CPL3-mediated alternative splicing reveals regulatory mechanisms of DGK5 in plant immunity and phosphatidic acid homeostasis” (Genome Biology, 2025).
Values belong to the binder of their own block, whether it stands above or below them.

Tests used:
[1] = biological target: T1, six histidine-tagged DGK5β (…OL KINASE 5, constitutive full-length isoform) (Arabidopsis thaliana, UniProt Q9C5E5 1-509); assay: pull-down; GST-BIK1 immobilised on glutathione agarose beads, blocked with BSA, incubated with 2 μg HIS-DGK5β or HIS-DGK5α in 300 μl incubation buffer (20 mM Tris-HCl pH 7.5, 100 mM NaCl, 0.1 mM EDTA, 0.2% Triton X-100) at 4 °C for 1 h; washed with 300 mM NaCl buffer; immunoblot with α-HIS and α-GST; conditions: both partners purified
T1 construct: …OL KINASE 5, isoform DGK5β, Arabidopsis thaliana, AT2G20900; printed size 57.4 kDa; Ser506 lies in the CBD; also called HIS-DGK5β; source: E. coli BL21, purified (Ni-NTA agarose)
T1 sequence (looked up): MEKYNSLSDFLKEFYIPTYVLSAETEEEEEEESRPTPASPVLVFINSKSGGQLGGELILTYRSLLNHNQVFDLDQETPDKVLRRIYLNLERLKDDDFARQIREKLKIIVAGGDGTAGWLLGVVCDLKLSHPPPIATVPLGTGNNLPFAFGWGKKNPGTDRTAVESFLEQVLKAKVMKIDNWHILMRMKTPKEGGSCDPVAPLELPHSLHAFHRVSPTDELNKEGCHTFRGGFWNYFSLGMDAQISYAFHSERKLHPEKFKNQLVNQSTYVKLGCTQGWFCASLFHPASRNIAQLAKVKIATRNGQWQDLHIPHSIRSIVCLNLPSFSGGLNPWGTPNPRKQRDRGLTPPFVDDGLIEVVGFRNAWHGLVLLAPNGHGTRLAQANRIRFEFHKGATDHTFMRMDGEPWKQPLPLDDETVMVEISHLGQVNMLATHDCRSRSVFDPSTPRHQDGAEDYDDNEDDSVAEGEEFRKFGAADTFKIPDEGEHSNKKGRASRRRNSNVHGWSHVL

[2] = biological target: T2, glutathione S-transferase (GST)-tagged BIK1 (BOTRYTIS-INDUCED KINASE 1) (Arabidopsis thaliana (Mouse-ear cress), UniProt O48814); assay: GST pull-down
T2 chain: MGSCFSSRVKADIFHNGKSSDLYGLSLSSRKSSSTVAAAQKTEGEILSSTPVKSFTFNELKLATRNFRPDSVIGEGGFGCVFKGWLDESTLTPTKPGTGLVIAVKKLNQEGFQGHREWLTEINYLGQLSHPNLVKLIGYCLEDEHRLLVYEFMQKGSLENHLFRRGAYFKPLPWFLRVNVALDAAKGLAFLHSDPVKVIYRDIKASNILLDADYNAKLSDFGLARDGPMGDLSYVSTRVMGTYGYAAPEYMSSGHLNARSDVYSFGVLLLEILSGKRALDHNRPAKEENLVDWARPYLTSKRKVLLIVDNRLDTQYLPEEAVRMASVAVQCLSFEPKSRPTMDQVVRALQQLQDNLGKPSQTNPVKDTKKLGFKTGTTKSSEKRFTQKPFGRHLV

- binding result [1]: binds
B1: glutathione S-transferase (GST)-tagged BIK1 (BOTRYTIS-INDUCED KINASE 1) (enzyme, Arabidopsis thaliana, UniProt O48814 1-395, looked up)
chain: T2 chain
notes: BOTRYTIS-INDUCED KINASE 1 (BIK1), receptor-like cytoplasmic kinase, Arabidopsis thaliana, AT2G39660; also called GST-BIK1; source: E. coli BL21, purified (glutathione agarose)

- binding result [2]: binds
B2: six histidine-tagged DGK5β (…OL KINASE 5, constitutive full-length isoform) (protein)
chain: T1 sequence (looked up)
